The record followed here is US20050191240A1 (BIOSYNTHEMA, published 2005).

What is called Kd is the constant that tells how readily two partners part at equilibrium. A lower Kd goes with a tighter complex. The IC50 is the concentration at which inhibition is half-maximal. A low value points to inhibition by little substance.

Holding throughout (assay): competitive binding vs radioiodinated native neurotensin, human tumor sections
The target of assay [1] is neurotensin receptors (frozen tissue sections from receptor-positive human tumors) (human) (UniProt P30989).
neurotensin receptors (frozen tissue sections from receptor-positive human tumors) (human), sequence (P30989 whole entry): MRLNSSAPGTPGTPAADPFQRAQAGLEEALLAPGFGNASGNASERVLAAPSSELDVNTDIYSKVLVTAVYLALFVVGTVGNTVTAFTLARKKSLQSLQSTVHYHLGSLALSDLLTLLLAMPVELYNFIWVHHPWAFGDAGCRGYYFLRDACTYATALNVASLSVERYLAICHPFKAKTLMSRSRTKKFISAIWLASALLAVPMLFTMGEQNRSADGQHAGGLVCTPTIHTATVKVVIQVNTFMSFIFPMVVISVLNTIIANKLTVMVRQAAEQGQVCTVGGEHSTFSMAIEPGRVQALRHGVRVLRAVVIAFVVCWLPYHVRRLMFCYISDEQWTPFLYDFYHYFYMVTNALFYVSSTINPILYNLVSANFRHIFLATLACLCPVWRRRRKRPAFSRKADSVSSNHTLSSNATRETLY
In assay [2] the target is T1, neurotensin receptors (frozen tissue sections from receptor-positive human tumors) (human, UniProt P30989 1-418).
T1 construct: whole, on cells
T1 sequence (P30989 whole entry): as above
From the text:
(§1) Frozen tissue sections from receptor-positive human tumors were used in a competitive binding assay.

The target of assay [3] is T1, neurotensin receptors (frozen tissue …).
Source text: as §1
The source holds these as a separate data set.

Assay [4] has the same target.
Source text: as §1
The source holds these as a separate data set.

Where two headings read alike, the source gives them in different places. *1 amine or outer side, *2 acyl side, *3 side chain or, on linkers, in order; H or OH if unused. [ ]: non-standard residue; d: D form. The star is where a group is joined. trans‑Cha(4-CH2NH2) = trans-(4-aminomethyl)cyclohexylalanine, O=C([C@H](C[C@H]1CC[C@H](CN[*:3])CC1)N[*:1])[*:2]; Gly(1-amidinopiperidin-4-yl) = N=C(N)N1CCC([C@H](N)C(=O)O)CC1; DTPA = O=C(O)CN(CCN(CC(=O)O)CC(=O)O)CCN(CC(=O)O)CC(=O)*; Phe(4-guanidino) = N=C(N)Nc1ccc(C[C@H](N)C(=O)O)cc1; homoAla(PipAm) = (N-amidinopiperidinyl)homoalanine; Ala(PipAm) = (N-amidinopiperidinyl)alanine; Dmt = Cc1cc(O)cc(C)c1C[C@H](N)C(=O)O; mTyr = N[C@@H](Cc1cccc(O)c1)C(=O)O; Ala(cPr) = N[C@@H](CC1CC1)C(=O)O; AzeCA = azetidinecarboxylic acid; tBuAla = CC(C)(C)C[C@H](N)C(=O)O; Cha = N[C@@H](CC1CCCCC1)C(=O)O; Chg = N[C@H](C(=O)O)C1CCCCC1; Tle = CC(C)(C)[C@H](N)C(=O)O; Aba(Apy) = not defined here; PipGly = piperidinylglycine; NHOH = ON*

For the molecule “DTPA-DLys-Pro-Aba(Apy)-Aba(Apy)-Pro-Tyr-Ile-Leu-OH (peptide)”, in assay [1], the Kd was more than 10000 nM.

As for {DTPA}-[PipGly]P[Gly(1-amidinopiperidin-4-yl)]RPY[Tle]L-OH [DTPA-PipGly-Pro-Gly(PipAm)-Arg-Pro-Tyr-tBuGly-Leu-OH], the Kd in assay [1] worked out at 3.9 nM. That is a single-digit nanomolar value.

With {DTPA}-[dK]P[Gly(1-amidinopiperidin-4-yl)]RPY[Chg]L-OH [DTPA-DLys-Pro-Gly(PipAm)-Arg-Pro-Tyr-Chg-Leu-OH], in assay [2], the affinity, expressed as Kd, was 25 nM.

Regarding {DTPA}-[dK]P[Gly(1-amidinopiperidin-4-yl)]RP[Dmt][Tle]L-OH [DTPA-DLys-Pro-Gly(PipAm)-Arg-Pro-(2,6-diMe)Tyr-tBuGly-Leu-OH], in assay [1], the Kd worked out at 45 nM.

B1: DTPA-DLys-Pro-(4-Gu)Phe-Arg-Pro-Tyr-tBuGly-Leu-OH (peptide)
peptide: {DTPA}-[dK]P[Phe(4-guanidino)]RPY[Tle]L-OH
notes: also called Compound IX; DTPA-DLys-Pro-Phe(4-guanyl)-Arg-Pro-Tyr-tBuGly-Leu-OH
B1 returned an IC50 in assay [3] of 12.5 nM. In assay [2], binding was put at a Kd of 12.5 nM.

B2: DTPA-DTyr-Glu-Asn-Lys-Pro-Gly(PipAm)-Arg-Pro-Tyr-tBuGly-Cha-OH (peptide)
peptide: {DTPA}-[dY]ENKP[Gly(1-amidinopiperidin-4-yl)]RPY[Tle][Cha]-OH
SMILES: CC(C)(C)[C@H](NC(=O)[C@H](Cc1ccc(O)cc1)NC(=O)[C@@H]1CCCN1C(=O)[C@H](CCCNC(=N)N)NC(=O)[C@@H](NC(=O)[C@@H]1CCCN1C(=O)[C@H](CCCCN)NC(=O)[C@H](CC(N)=O)NC(=O)[C@H](CCC(=O)O)NC(=O)[C@@H](Cc1ccc(O)cc1)NC(=O)CN(CCN(CCN(CC(=O)O)CC(=O)O)CC(=O)O)CC(=O)O)C1CCN(C(=N)N)CC1)C(=O)N[C@@H](CC1CCCCC1)C(=O)O
notes: also called Compound XIV
B2 gave a Kd in assay [2] of 4.5 nM.

B3: DTPA-DLys-Pro-(4-Gu)Phe-(4-Gu)Phe-Pro-Tyr-Ile-Leu-OH (peptide)
peptide: {DTPA}-[dK]P[Phe(4-guanidino)][Phe(4-guanidino)]PYIL-OH
SMILES: CC[C@H](C)[C@H](NC(=O)[C@H](Cc1ccc(O)cc1)NC(=O)[C@@H]1CCCN1C(=O)[C@H](Cc1ccc(NC(=N)N)cc1)NC(=O)[C@H](Cc1ccc(NC(=N)N)cc1)NC(=O)[C@@H]1CCCN1C(=O)[C@@H](CCCCN)NC(=O)CN(CCN(CCN(CC(=O)O)CC(=O)O)CC(=O)O)CC(=O)O)C(=O)N[C@@H](CC(C)C)C(=O)O
notes: also called DTPA-DLys-Pro-Phe(4-guanyl)-Phe(4-guanyl)-Pro-Tyr-Ile-Leu-OH
With B3, the Kd in assay [3] and in assay [2] was 175 nM each time.

Turning to {DTPA}-[dK]P[Gly(1-amidinopiperidin-4-yl)]RP[mTyr][Tle]L-OH [DTPA-DLys-Pro-Gly(PipAm)-Arg-Pro-mTyr-tBuGly-Leu-OH], in assay [1], the Kd was determined as 300 nM. In other words, the sub-micromolar range.

In turn, {DTPA}-[dK]P[Gly(1-amidinopiperidin-4-yl)]RPY[Tle]L-OH (also called Compound X) [DTPA-DLys-Pro-Gly(PipAm)-Arg-Pro-Tyr-tBuGly-Leu-OH] yielded an IC50 in assay [3] of 3.5 nM. For the same molecule, the equilibrium dissociation constant (Kd) in assay [2] is 3.5 nM.

B4: DTPA-trans-Cha(4-CH2NH2)-Pro-Gly(PipAm)-Arg-Pro-Tyr-tBuGly-Leu-OH (peptide)
peptide: {DTPA}-[trans‑Cha(4-CH2NH2)]P[Gly(1-amidinopiperidin-4-yl)]RPY[Tle]L-OH
SMILES: CC(C)C[C@H](NC(=O)[C@@H](NC(=O)[C@H](Cc1ccc(O)cc1)NC(=O)[C@@H]1CCCN1C(=O)[C@H](CCCNC(=N)N)NC(=O)[C@@H](NC(=O)[C@@H]1CCCN1C(=O)[C@H](C[C@H]1CC[C@H](CN)CC1)NC(=O)CN(CCN(CCN(CC(=O)O)CC(=O)O)CC(=O)O)CC(=O)O)C1CCN(C(=N)N)CC1)C(C)(C)C)C(=O)O
Regarding B4, in assay [1], the Kd amounted to 5 nM.

As to {DTPA}-[dK]P[Gly(1-amidinopiperidin-4-yl)]R[AzeCA]Y[Tle]L-OH [DTPA-DLys-Pro-Gly(PipAm)-Arg-AzeCA-Tyr-tBuGly-Leu-OH], in assay [1], the Kd stood at 740 nM.

B5: DTPA-DLys-Pro-Gly(PipAm)-Arg-Pro-Tyr-tBuGly-Cpa-OH (peptide)
peptide: {DTPA}-[dK]P[Gly(1-amidinopiperidin-4-yl)]RPY[Tle][Ala(cPr)]-OH
SMILES: CC(C)(C)[C@H](NC(=O)[C@H](Cc1ccc(O)cc1)NC(=O)[C@@H]1CCCN1C(=O)[C@H](CCCNC(=N)N)NC(=O)[C@@H](NC(=O)[C@@H]1CCCN1C(=O)[C@@H](CCCCN)NC(=O)CN(CCN(CCN(CC(=O)O)CC(=O)O)CC(=O)O)CC(=O)O)C1CCN(C(=N)N)CC1)C(=O)N[C@@H](CC1CC1)C(=O)O
The molecule B5 showed a Kd in assay [1] of 290 nM. Compared with the last molecule, the Kd is about 2.6-fold lower.

On to {DTPA}-[dK]P[Ala(PipAm)]RPY[Tle]L-OH [DTPA-DLys-Pro-Ala(PipAm)-Arg-Pro-Tyr-tBuGly-Leu-OH], for which, in assay [2], the Kd was 14 nM. This lies in the double-digit nanomolar range.

In assay [1], {DTPA}-[dK][AzeCA][Gly(1-amidinopiperidin-4-yl)]RPY[Tle]L-OH [DTPA-DLys-AzeCA-Gly(PipAm)-Arg-Pro-Tyr-tBuGly-Leu-OH] showed a Kd of 24 nM. That is a double-digit nanomolar value.

{DTPA}-[dK]P[Gly(1-amidinopiperidin-4-yl)]RP[dY][Tle]L-OH [DTPA-DLys-Pro-Gly(PipAm)-Arg-Pro-DTyr-tBuGly-Leu-OH]: the affinity in assay [2], expressed as Kd, was 6.4 nM.

B6: DTPA-DLys-Pro-Gly(PipAm)-Arg-Pro-Tyr-tBuGly-tBuAla-OH (peptide)
peptide: {DTPA}-[dK]P[Gly(1-amidinopiperidin-4-yl)]RPY[Tle][tBuAla]-OH
SMILES: CC(C)(C)C[C@H](NC(=O)[C@@H](NC(=O)[C@H](Cc1ccc(O)cc1)NC(=O)[C@@H]1CCCN1C(=O)[C@H](CCCNC(=N)N)NC(=O)[C@@H](NC(=O)[C@@H]1CCCN1C(=O)[C@@H](CCCCN)NC(=O)CN(CCN(CCN(CC(=O)O)CC(=O)O)CC(=O)O)CC(=O)O)C1CCN(C(=N)N)CC1)C(C)(C)C)C(=O)O
For the molecule B6, in assay [1], the Kd was 7.3 nM.

{DTPA}-[dK]P[Aba(Apy)]RPYIL-OH (reading uncertain, also called Compound III) [DTPA-DLys-Pro-Aba(Apy)-Arg-Pro-Tyr-Ile-Leu-OH]: the Kd in assay [3], in assay [4] and in assay [2] was 68 nM each time.

B7: DTPA-DTyr-Glu-Asn-Lys-Pro-Gly(PipAm)-Arg-Pro-Tyr-tBuGly-tBuAla-OH (peptide)
peptide: {DTPA}-[dY]ENKP[Gly(1-amidinopiperidin-4-yl)]RPY[Tle][tBuAla]-OH
SMILES: CC(C)(C)C[C@H](NC(=O)[C@@H](NC(=O)[C@H](Cc1ccc(O)cc1)NC(=O)[C@@H]1CCCN1C(=O)[C@H](CCCNC(=N)N)NC(=O)[C@@H](NC(=O)[C@@H]1CCCN1C(=O)[C@H](CCCCN)NC(=O)[C@H](CC(N)=O)NC(=O)[C@H](CCC(=O)O)NC(=O)[C@@H](Cc1ccc(O)cc1)NC(=O)CN(CCN(CCN(CC(=O)O)CC(=O)O)CC(=O)O)CC(=O)O)C1CCN(C(=N)N)CC1)C(C)(C)C)C(=O)O
notes: also called Compound XV
B7 came in with a Kd in assay [2] of 3.5 nM.

B8: DTPA-DLys-Pro-Gly(PipAm)-Arg-Pro-Tyr-Ile-Leu-OH (peptide)
peptide: KPXRPYIL
modifications: N-terminal DTPA; D-Lys at 1; Gly(PipAm) ((N-amidinopiperidinyl)glycine) at 3 (X)
notes: also called Compound II
As to B8, the Kd in assay [3], in assay [4] and in assay [2] was 2.7 nM each time.

Regarding {DTPA}-[dK]PR[Aba(Apy)]PYIL-OH (reading uncertain) [DTPA-DLys-Pro-Arg-Aba(Apy)-Pro-Tyr-Ile-Leu-OH], the Kd in assay [3] and in assay [2] was 1200 nM throughout.

On to {DTPA}-[dK]P[Gly(1-amidinopiperidin-4-yl)][PipGly]PY[Tle]L-OH [DTPA-DLys-Pro-Gly(PipAm)-PipGly-Pro-Tyr-tBuGly-Leu-OH], for which the dissociation constant (Kd) in assay [1] was determined as 140 nM.

Turning to {DTPA}-[dK]P[Gly(1-amidinopiperidin-4-yl)]RPY[Tle]L-{NHOH} [DTPA-DLys-Pro-Gly(PipAm)-Arg-Pro-Tyr-tBuGly-Leu-HA], the Kd in assay [2] is 49 nM. This lies in the double-digit nanomolar range.

B9: DTPA-DLys-Pro-Arg-(4-Gu)Phe-Pro-Tyr-Ile-Leu-OH (peptide)
peptide: KPRXPYIL
modifications: N-terminal DTPA; D-Lys at 1; (4-Gu)Phe [Phe(4-guanyl)] at 4 (X)
notes: also called DTPA-DLys-Pro-Arg-Phe(4-guanyl)-Pro-Tyr-Ile-Leu-OH
Regarding B9, the Kd in assay [3] and in assay [2] was 83 nM throughout.

In assay [2], {DTPA}-[dK]P[homoAla(PipAm)]RPY[Tle]L-OH [DTPA-DLys-Pro-homoAla(PipAm)-Arg-Pro-Tyr-tBuGly-Leu-OH] registered a Kd of 14 nM.

B10: DTPA-DTyr-Glu-Asn-Lys-Pro-Gly(PipAm)-Arg-Pro-Tyr-tBuGly-Leu-OH (peptide)
peptide: {DTPA}-[dY]ENKP[Gly(1-amidinopiperidin-4-yl)]RPY[Tle]L-OH
SMILES: CC(C)C[C@H](NC(=O)[C@@H](NC(=O)[C@H](Cc1ccc(O)cc1)NC(=O)[C@@H]1CCCN1C(=O)[C@H](CCCNC(=N)N)NC(=O)[C@@H](NC(=O)[C@@H]1CCCN1C(=O)[C@H](CCCCN)NC(=O)[C@H](CC(N)=O)NC(=O)[C@H](CCC(=O)O)NC(=O)[C@@H](Cc1ccc(O)cc1)NC(=O)CN(CCN(CCN(CC(=O)O)CC(=O)O)CC(=O)O)CC(=O)O)C1CCN(C(=N)N)CC1)C(C)(C)C)C(=O)O
notes: also called Compound XIII
For the molecule B10, the Kd in assay [2] stood at 4.5 nM.

B11: DTPA-DLys-Pro-Gly(PipAm)-Arg-Pro-Tyr-tBuGly-Cha-OH (peptide)
peptide: {DTPA}-[dK]P[Gly(1-amidinopiperidin-4-yl)]RPY[Tle][Cha]-OH
SMILES: CC(C)(C)[C@H](NC(=O)[C@H](Cc1ccc(O)cc1)NC(=O)[C@@H]1CCCN1C(=O)[C@H](CCCNC(=N)N)NC(=O)[C@@H](NC(=O)[C@@H]1CCCN1C(=O)[C@@H](CCCCN)NC(=O)CN(CCN(CCN(CC(=O)O)CC(=O)O)CC(=O)O)CC(=O)O)C1CCN(C(=N)N)CC1)C(=O)N[C@@H](CC1CCCCC1)C(=O)O
Take B11: the Kd in assay [1] came out at 12 nM.

B12: DTPA-DLys-Pro-(4-Gu)Phe-Arg-Pro-Tyr-Ile-Leu-OH (peptide)
peptide: KPXRPYIL
modifications: N-terminal DTPA; D-Lys at 1; (4-Gu)Phe [Phe(4-guanyl)] at 3 (X)
notes: also called Compound I; DTPA-DLys-Pro-Phe(4-guanyl)-Arg-Pro-Tyr-Ile-Leu-OH
With B12, the Kd in assay [3], in assay [4] and in assay [2] was 8.6 nM in each case.
